Literature values in PMC6289173.

Molecular target: endophilin (UniProt O35179)

Kd: 10 µM
Substance: endophilin (from UniProt O35179)
